Test results published in US20240409645A1 (DUALYX, published 2024).
Where a chain is given by its changes, count along the chain named.

T1: human IL-2Rβ (human, UniProt P14784 27-240, limits assumed)
T1 construct: recombinant protein, coated or immobilised; also called hu IL-2R; IL-2R beta
T1 sequence: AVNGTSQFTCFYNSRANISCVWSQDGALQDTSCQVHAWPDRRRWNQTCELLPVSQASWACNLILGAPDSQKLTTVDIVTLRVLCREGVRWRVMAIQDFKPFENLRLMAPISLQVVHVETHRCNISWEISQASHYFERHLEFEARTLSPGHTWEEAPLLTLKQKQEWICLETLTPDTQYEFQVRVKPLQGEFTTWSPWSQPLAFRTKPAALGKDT

B1: FJ1427_P035MP02B03 (VHH)
VHH: QVQLVESGGGLVQTGGSLRLSCAASGSRFVSDFMGWYRQVPGKQRELVADMADGGSARYGDSVKGRFTILRDSGNSTAYLQMSSLKPEDTGVYYCKAGLWIAGRHFDYWGQGTQVTVSS
notes: soluble VHH in periplasmic extract; also called clone nr
B2: FJ1427_P035MP02C02 (VHH)
VHH: B1 VHH with T14P, S73N, G74M, Y79F
notes: as for B1
B3: FJ1427_P035MP02F06 (VHH)
VHH: B1 VHH with Q1E, V30I, D72E, S76A
notes: as for B1
B4: FJ1427_P035MP02B09 (VHH)
VHH: EVQLVESGGGLVQAGGSLRLSCAASGRTFSTTEMGWFRQAPGKEREFVAAITWTGRGTMYAESVEGRFTISRENAKNMVYLQMNSLKPEDTAIYYCAAARRGRAAVRSEGGYDFWGQGTQVTVSS
notes: as for B1
B5: FJ1427_P035MP02G10 (VHH)
VHH: B4 VHH with E1Q
notes: as for B1
B6: FJ1427_P035MP02D07 (VHH)
VHH: B4 VHH with T28S, F29L, T54S, T69A, I70V, M78T
notes: as for B1
B7: FJ1427_P035MP02A11 (VHH)
VHH: B4 VHH with V121A
notes: as for B1
B8: FJ1427_P035MP02B08 (VHH)
VHH: EVQLVESGGGLVQAGGSLRLSCAASGRAIENYPVGWFRQAPGKEREFVAAITWISGSTLYADSVKGRFTISRDNAKNTVYLQMSSLKPEDTALYYCAAALKTITRGQNDYSYWGQGTQVTVSS
notes: soluble VHH in periplasmic extract; also called 16-MP02B08; clone nr
B9: FJ1427 P035MP02H09 (VHH)
VHH: B8 VHH with E1Q, V2L, A14P, S25A, Q39R
notes: as for B1
B10: FJ1427 P035MP02B07 (VHH)
VHH: B8 VHH with Q13E, I29F, E30N, Y32F, V34M, N74K, A75S, S85G, N108H, S111T
notes: as for B1
B11: FJ1427_P035MP02E10 (VHH)
VHH: B8 VHH with E1Q, S25A, Q39R
notes: as for B1
B12: FJ1427_P035MP02B10 (VHH)
VHH: QVQLVESGGGLVEAGGSLRLSCAASGRAFNNFPMGWFRQAPGKEREFVAAITWISGSTLYADSVKGRFTISRDKSKNTVYLQMSGLKPEDTALYYCAAALKTITRGQHDYTYWGQGTQVTVSS
notes: soluble VHH in periplasmic extract; also called clone nr; 170
B13: FJ1427_P035MP02E05 (VHH)
VHH: EVQLVESGGGLVQIGGSLRLSCAASGRTFSSITMAYFRQVPGKEHEWVAGINFSGTRTFYADSVKGRFLISRDDAKSTMYLQMNSLKPEDTAVYYCAASPRGFYGPGNALYDYWGQGTQVTVSS
notes: as for B1
B14: FJ1427 P035MP02A07 (VHH)
VHH: QVQLVESGGGLVQAGGSLRLSCAVSGDVFVRYTMAWFRQAPGKEREFVATVTDSGRTTEYVDSVKGRFTVSRDNAKNTVYLQMNNLKPEDTAVYYCAANTDYFRIRSLDANTWGQGTQVTVSS
notes: as for B1
B15: FJ1427 P035MP02C11 (VHH)
VHH: B14 VHH with T50S, N85S, R104Q, D109R
notes: as for B1
B16: FJ1427_P035MP02G09 (VHH)
VHH: B14 VHH with A23T, T50L
notes: as for B1
B17: FJ1427_P035MP02G07 (VHH)
VHH: B14 VHH with T50S, V79A, R104Q, A110L
notes: as for B1
B18: FJ1427 P035MP02D08 (VHH)
VHH: B14 VHH with Q1E, A23V, A49T, T50S, V51I
notes: as for B1
B19: FJ1427_P035MP02F09 (VHH)
VHH: B14 VHH with Q1E, V24A, T50S, E59D, R104Q, D109E, A110F
notes: as for B1
B20: FJ1427 P035MP02D09 (VHH)
VHH: B14 VHH with S21A, V24L, T50S, E59D, D62A, K65Q, A75N, N85S, R104Q, A110R
notes: as for B1
B21: FJ1427_P035MP02A08 (VHH)
VHH: B14 VHH with Q1E, A23T
notes: as for B1
B22: FJ1427_P035MP02C10 (VHH)
VHH: B14 VHH with S21A, V24L, T50S, E59D, D62A, K65Q, A75N, N85S, R104Q, A110R
notes: as for B1
B23: FJ1427 P035MP02F02 (VHH)
VHH: EVQLVESGGGLVQAGGSLRLACALSGDVFVRYTMAWFRQAPGKEREFVASVTDSGRTTDYVASVQGRFTVSRDNNKNTVYLQMNSLKPEDTAVYYCAANTDYFQIRSLDRNTWGQGTQVTVSS
notes: soluble VHH in periplasmic extract; also called clone nr; 110
B24: FJ1427 P035MP02H10 (VHH)
VHH: B23 VHH with A21S, L24A, A62D, Q65K, N75A, S85N, R106K
notes: as for B1
B25: FJ1427_P035MP02E07 (VHH)
VHH: B23 VHH with E1Q, R19G
notes: as for B1
B26: FJ1427_P035MP02A09 (VHH)
VHH: B14 VHH with T50S, V64A, N85S, R104Q, D109R
notes: as for B1
B27: FJ1427_P035MP02F10 (VHH)
VHH: B14 VHH with Q1E, A23V, T50V, R104Q, L108V, A110N, T112A
notes: as for B1
B28: FJ1427_P035MP06A07 (VHH)
VHH: B14 VHH with V5Q, V24A, T50S, V79A, V93I, R104Q, A110L
notes: soluble VHH in periplasmic extract; also called 26-MP06A07; clone nr
B29: FJ1427 P035MP02G08 (VHH)
VHH: B14 VHH with A23T, T50S, D62H, K65R
notes: as for B1
B30: FJ1427_P035MP02E08 (VHH)
VHH: B14 VHH with Q1E, A23V, T50V, R104Q, L108V, A110N, T112A
notes: as for B1
B31: FJ1427 P035MP02F07 (VHH)
VHH: B14 VHH with V24A, T50S, E59D, V93R, R104Q
notes: soluble VHH in periplasmic extract; also called clone nr; 150
B32: FJ1427_P035MP06F03 (VHH)
VHH: B14 VHH with T50S, E59D, D62H, R104Q, R106K
notes: soluble VHH in periplasmic extract; also called 23-MP06F03; clone nr; 502
B33: FJ1427_P035MP02D06 (VHH)
VHH: EVQLVESGGGLVQTGGSLRLSCAASGSQFINDVMGWYRQVPGKQRELVADMDDTGSTKYADSVKGRFTILRDSVKNTAYLQMSNLKPEDTGVYYCKAGLWIKGRHSDYWGQGTQVTVSS
notes: soluble VHH in periplasmic extract; also called clone nr; 140
B34: FJ1427 P035MP03A12 (VHH)
VHH: EVQLVESGGGLVQAGGSLRLSCAASGRTFSINAMGWFRQAPGKEREFVAAISRSGGSTVYVDGVKGRFTISRDNAKNTVYLQMNSLEPEDTAVYYCAATMAVGWTTRWRTADFDSWGQGTQVTVSS
notes: soluble VHH in periplasmic extract; also called 21-MP03A12; clone nr
B35: FJ1427_P035MP02C07 (VHH)
VHH: B34 VHH with E1Q, A33T, G56D, G63S, S85T, E87K, A98T, M100V, R109S, A111I
notes: as for B1
B36: FJ1427 P035MP02H05 (VHH)
VHH: EVQLVESGGGSVQTGGSLRLSCVVSGSHFISDVMGWYRQVPGKQRELVADMADGGSAKYGDSVKGRFTILRDSVKNTVTLQMSSLNPEDTGVYYCKAGLWITGRHSDYWGQGTQVTVTS
notes: as for B1

Assays:
human IL-2Rβ [1] = biological target: T1, human IL-2Rβ; experiment: P.E. ELISA, coated protein
Protocol: In a binding ELISA, human or mouse IL-2Rα, IL-2Rβ and IL-2Rγ proteins were coated directly on maxisorp microtiter plates overnight at 4° C. Free binding sites were blocked using 4% Marvel in PBS for 1 hour. Next, 1:5 dilution of P.E. in 1% Marvel/PBS were added to wells and incubated for 1 hour. […] Binding specificity was determined based on O.D. at 450 nm values compared to negative controls.

human IL-2Rβ [2] = biological target: T1, human IL-2Rβ; experiment: SPR, P.E. off-rate
Protocol: SPR was performed to determine dissociation rates using Biacore 3000 instrument (GE Healthcare). Briefly, human and mouse IL-2R proteins were immobilized on carboxylmethyl dextran sensor chip (CM5) at approximately 2500 RUs using amine coupling in acetate buffer (GE Healthcare). The VHH-containing P.E. were loaded with a flow rate of 30 uL/min and the off-rates were measured over a 120s period.

| Binder | P.E. binding ELISA OD (human IL-2Rβ [1]) [OD450 nm] | koff (human IL-2Rβ [2]) [s⁻¹] |
| --- | --- | --- |
| B1 | 0.383 | 0.000215 |
| B2 | 0.401 | 0.00057 |
| B3 | 0.214 | 0.000203 |
| B4 | 0.811 | 0.00022 |
| B5 | 0.974 | 0.000307 |
| B6 | 0.747 | 0.000982 |
| B7 | 0.891 | 0.000293 |
| B8 | 1.38 | 0.000141 |
| B9 | 1.51 | 0.000141 |
| B10 | 0.38 | 0.000336 |
| B11 | 1.39 | 0.000615 |
| B12 | 0.476 | 0.000284 |
| B13 | 0.856 | 0.00031 |
| B14 | 0.791 | 0.00211 |
| B15 | 1.57 | 0.000433 |
| B16 | 0.527 | 0.0011 |
| B17 | 0.636 | 0.000259 |
| B18 | 0.905 | 0.00236 |

| Binder | P.E. binding ELISA OD (human IL-2Rβ [1]) [OD450 nm] | koff (human IL-2Rβ [2]) [s⁻¹] |
| --- | --- | --- |
| B19 | 1.47 | 0.00107 |
| B20 | 1.47 | 0.000498 |
| B21 | 1.79 | 0.00198 |
| B22 | 1.29 | 0.000521 |
| B23 | 0.684 | 0.000617 |
| B24 | 0.435 | 0.000757 |
| B25 | 0.541 | 0.000577 |
| B26 | 1.3 | 0.000617 |
| B27 | 0.595 | 0.000788 |
| B28 | 1.03 | 0.000363 |
| B29 | 0.441 | 0.00178 |
| B30 | 0.45 | 0.000846 |
| B31 | 0.848 | 0.00164 |
| B32 | 0.54 | 0.00105 |
| B33 | 0.298 | 0.000374 |
| B34 | 0.146 | 0.00628 |
| B35 | 0.731 | 0.00231 |
| B36 | 0.192 | 0.000268 |
